Measured values from IntAct's records for PubMed 18555782.

B1: Heat shock protein homolog SSE1 (Saccharomyces cerevisiae), P32589 (parent)
chain: MSTPFGLDLGNNNSVLAVARNRGIDIVVNEVSNRSTPSVVGFGPKNRYLGETGKNKQTSNIKNTVANLKRIIGLDYHHPDFEQESKHFTSKLVELDDKKTGAEVRFAGEKHVFSATQLAAMFIDKVKDTVKQDTKANITDVCIAVPPWYTEEQRYNIADAARIAGLNPVRIVNDVTAAGVSYGIFKTDLPEGEEKPRIVAFVDIGHSSYTCSIMAFKKGQLKVLGTACDKHFGGRDFDLAITEHFADEFKTKYKIDIRENPKAYNRILTAAEKLKKVLSANTNAPFSVESVMNDVDVSSQLSREELEELVKPLLERVTEPVTKALAQAKLSAEEVDFVEIIGGTTRIPTLKQSISEAFGKPLSTTLNQDEAIAKGAAFICAIHSPTLRVRPFKFEDIHPYSVSYSWDKQVEDEDHMEVFPAGSSFPSTKLITLNRTGDFSMAASYTDITQLPPNTPEQIANWEITGVQLPEGQDSVPVKLKLRCDPSGLHTIEEAYTIEDIEVEEPIPLPEDAPEDAEQEFKKVTKTVKKDDLTIVAHTFGLDAKKLNELIEKENEMLAQDKLVAETEDRKNTLEEYIYTLRGKLEEEYAPFASDAEKTKLQGMLNKAEEWLYDEGFDSIKAKYIAKYEELASLGNIIRGRYLAKEEEKKQAIRSKQEASQMAAMAEKLAAQRKAEAEKKEEKKDTEGDVDMD

Variants of: B1
Details: with hsp71_yeast SSA1, P10591
Chain of hsp71_yeast SSA1, P10591 (P10591 whole entry): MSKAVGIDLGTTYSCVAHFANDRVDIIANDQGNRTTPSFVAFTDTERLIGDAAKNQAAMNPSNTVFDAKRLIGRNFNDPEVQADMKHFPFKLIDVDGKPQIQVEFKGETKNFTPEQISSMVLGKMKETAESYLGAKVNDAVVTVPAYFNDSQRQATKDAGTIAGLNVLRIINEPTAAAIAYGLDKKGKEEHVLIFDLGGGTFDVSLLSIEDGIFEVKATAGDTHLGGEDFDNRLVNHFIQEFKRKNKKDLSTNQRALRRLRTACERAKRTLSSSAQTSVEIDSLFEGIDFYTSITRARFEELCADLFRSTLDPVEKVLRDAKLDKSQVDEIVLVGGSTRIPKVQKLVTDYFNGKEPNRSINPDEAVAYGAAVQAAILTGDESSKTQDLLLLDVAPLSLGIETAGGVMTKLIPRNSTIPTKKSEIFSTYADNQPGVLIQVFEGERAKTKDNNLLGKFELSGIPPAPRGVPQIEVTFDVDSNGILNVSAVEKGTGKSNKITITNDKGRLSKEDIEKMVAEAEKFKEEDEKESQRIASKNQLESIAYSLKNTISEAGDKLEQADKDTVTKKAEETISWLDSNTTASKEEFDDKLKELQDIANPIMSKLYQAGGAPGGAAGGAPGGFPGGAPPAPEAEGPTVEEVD

Effect of a mutation on the interaction, decreasing interaction:
L489A;H490A
T365V;N367S
D396A
E554A;M557S;L558S
N572Y;E575A
A280T;N281A
F392A;F394A
